Here are results for 27 molecules from publication PMC10786891, “Massively parallel profiling of RNA-targeting CRISPR-Cas13d”.

First the molecules themselves.
T1: EsCas13d, nuclease-dead (Eubacterium siraeum, UniProt B0MS50, R295A;H300A;R849A;H854A)
T1 sequence: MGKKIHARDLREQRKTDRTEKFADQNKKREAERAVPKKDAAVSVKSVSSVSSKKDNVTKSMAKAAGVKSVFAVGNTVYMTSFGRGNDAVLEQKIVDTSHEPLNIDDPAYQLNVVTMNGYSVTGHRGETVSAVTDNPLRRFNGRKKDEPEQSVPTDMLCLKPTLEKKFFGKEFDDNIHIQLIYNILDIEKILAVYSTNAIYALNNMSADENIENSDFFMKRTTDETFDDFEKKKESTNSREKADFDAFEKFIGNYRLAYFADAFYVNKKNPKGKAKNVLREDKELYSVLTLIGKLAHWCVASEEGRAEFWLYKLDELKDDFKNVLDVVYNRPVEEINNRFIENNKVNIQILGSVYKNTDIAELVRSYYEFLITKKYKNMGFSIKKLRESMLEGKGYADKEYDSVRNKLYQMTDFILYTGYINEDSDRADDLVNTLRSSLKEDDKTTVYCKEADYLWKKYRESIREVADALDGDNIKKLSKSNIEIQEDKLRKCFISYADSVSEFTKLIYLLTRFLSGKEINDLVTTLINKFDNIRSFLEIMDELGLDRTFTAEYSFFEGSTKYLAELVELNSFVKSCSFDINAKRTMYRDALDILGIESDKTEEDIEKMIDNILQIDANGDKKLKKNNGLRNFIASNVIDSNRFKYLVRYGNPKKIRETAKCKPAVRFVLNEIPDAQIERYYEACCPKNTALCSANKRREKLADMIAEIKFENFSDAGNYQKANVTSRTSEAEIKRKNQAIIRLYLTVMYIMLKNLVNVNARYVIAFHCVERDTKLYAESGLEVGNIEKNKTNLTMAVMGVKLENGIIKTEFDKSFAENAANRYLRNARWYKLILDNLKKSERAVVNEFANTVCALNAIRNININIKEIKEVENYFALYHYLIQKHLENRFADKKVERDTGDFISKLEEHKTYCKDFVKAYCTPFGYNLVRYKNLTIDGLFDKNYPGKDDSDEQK

B1: target 1 A1U (mixed)
RNA 1: CACCCGUGCAAAAAUGCAGGGGUCUAAAACUGAGCGGAUAACCUCUCUAUGG
RNA 2: GGGAAUGGAUCCACAUCUACGAAUUCGUACCAUAGAGAGGUUAUCCGCUCUCCGAGAUCGGAAGAGCACACGU
B2: target 1 U8C,A20C (mixed)
RNA 1: CACCCGUGCAAAAAUGCAGGGGUCUAAAACUGAGCGGAUAACCUCUCUAUGG
RNA 2: GGGAAUGGAUCCACAUCUACGAAUUCGUACCCUAGAGAGGUUACCCGCUCACCGAGAUCGGAAGAGCACACGU
B3: target 1 A1G,U19C (mixed)
RNA 1: CACCCGUGCAAAAAUGCAGGGGUCUAAAACUGAGCGGAUAACCUCUCUAUGG
RNA 2: GGGAAUGGAUCCACAUCUACGAAUUCGUACCACAGAGAGGUUAUCCGCUCGCCGAGAUCGGAAGAGCACACGU
B4: target 1 insC 3' of 11,insA 3' of 2 (mixed)
RNA 1: CACCCGUGCAAAAAUGCAGGGGUCUAAAACUGAGCGGAUAACCUCUCUAUGG
RNA 2: GGGAAUGGAUCCACAUCUACGAAUUCGUACCAUAGAGAGGUCUAUCCGCUCAACCGAGAUCGGAAGAGCACACGU
B5: target 1 insC 3' of 3,insA 3' of 3 (mixed)
RNA 1: CACCCGUGCAAAAAUGCAGGGGUCUAAAACUGAGCGGAUAACCUCUCUAUGG
RNA 2: GGGAAUGGAUCCACAUCUACGAAUUCGUACCAUAGAGAGGUUAUCCGCUCACACCGAGAUCGGAAGAGCACACGU
B6: target 1 C6G,U10G (mixed)
RNA 1: CACCCGUGCAAAAAUGCAGGGGUCUAAAACUGAGCGGAUAACCUCUCUAUGG
RNA 2: GGGAAUGGAUCCACAUCUACGAAUUCGUACCAUAGAGAGGUGAUCGGCUCACCGAGAUCGGAAGAGCACACGU
B7: target 1 insC 3' of 1,insG 3' of 1 (mixed)
RNA 1: CACCCGUGCAAAAAUGCAGGGGUCUAAAACUGAGCGGAUAACCUCUCUAUGG
RNA 2: GGGAAUGGAUCCACAUCUACGAAUUCGUACCAUAGAGAGGUUAUCCGCUCACGCCGAGAUCGGAAGAGCACACGU
B8: target 1 A1G (mixed)
RNA 1: CACCCGUGCAAAAAUGCAGGGGUCUAAAACUGAGCGGAUAACCUCUCUAUGG
RNA 2: GGGAAUGGAUCCACAUCUACGAAUUCGUACCAUAGAGAGGUUAUCCGCUCGCCGAGAUCGGAAGAGCACACGU
B9: target 1 A1C,A9C (mixed)
RNA 1: CACCCGUGCAAAAAUGCAGGGGUCUAAAACUGAGCGGAUAACCUCUCUAUGG
RNA 2: GGGAAUGGAUCCACAUCUACGAAUUCGUACCAUAGAGAGGUUCUCCGCUCCCCGAGAUCGGAAGAGCACACGU
B10: target 1 C2U,U19A (mixed)
RNA 1: CACCCGUGCAAAAAUGCAGGGGUCUAAAACUGAGCGGAUAACCUCUCUAUGG
RNA 2: GGGAAUGGAUCCACAUCUACGAAUUCGUACCAAAGAGAGGUUAUCCGCUUACCGAGAUCGGAAGAGCACACGU
B11: target 1 insC 3' of 1,insU 3' of 1 (mixed)
RNA 1: CACCCGUGCAAAAAUGCAGGGGUCUAAAACUGAGCGGAUAACCUCUCUAUGG
RNA 2: GGGAAUGGAUCCACAUCUACGAAUUCGUACCAUAGAGAGGUUAUCCGCUCACUCCGAGAUCGGAAGAGCACACGU
B12: target 1 insC 3' of 17,insU 3' of 16 (mixed)
RNA 1: CACCCGUGCAAAAAUGCAGGGGUCUAAAACUGAGCGGAUAACCUCUCUAUGG
RNA 2: GGGAAUGGAUCCACAUCUACGAAUUCGUACCAUAGCAUGAGGUUAUCCGCUCACCGAGAUCGGAAGAGCACACGU
B13: target 1 A16C,A18U (mixed)
RNA 1: CACCCGUGCAAAAAUGCAGGGGUCUAAAACUGAGCGGAUAACCUCUCUAUGG
RNA 2: GGGAAUGGAUCCACAUCUACGAAUUCGUACCAUUGCGAGGUUAUCCGCUCACCGAGAUCGGAAGAGCACACGU
B14: target 1 A9C (mixed)
RNA 1: CACCCGUGCAAAAAUGCAGGGGUCUAAAACUGAGCGGAUAACCUCUCUAUGG
RNA 2: GGGAAUGGAUCCACAUCUACGAAUUCGUACCAUAGAGAGGUUCUCCGCUCACCGAGAUCGGAAGAGCACACGU
B15: target 1 insU 3' of 4,insG 3' of 3 (mixed)
RNA 1: CACCCGUGCAAAAAUGCAGGGGUCUAAAACUGAGCGGAUAACCUCUCUAUGG
RNA 2: GGGAAUGGAUCCACAUCUACGAAUUCGUACCAUAGAGAGGUUAUCCGCUUGCACCGAGAUCGGAAGAGCACACGU
B16: target 1 insC 3' of 20,insU 3' of 13 (mixed)
RNA 1: CACCCGUGCAAAAAUGCAGGGGUCUAAAACUGAGCGGAUAACCUCUCUAUGG
RNA 2: GGGAAUGGAUCCACAUCUACGAAUUCGUACCACUAGAGAGUGUUAUCCGCUCACCGAGAUCGGAAGAGCACACGU
B17: target 1 insC 3' of 11,insA 3' of 7 (mixed)
RNA 1: CACCCGUGCAAAAAUGCAGGGGUCUAAAACUGAGCGGAUAACCUCUCUAUGG
RNA 2: GGGAAUGGAUCCACAUCUACGAAUUCGUACCAUAGAGAGGUCUAUCACGCUCACCGAGAUCGGAAGAGCACACGU
B18: target 1 U11C,A18U (mixed)
RNA 1: CACCCGUGCAAAAAUGCAGGGGUCUAAAACUGAGCGGAUAACCUCUCUAUGG
RNA 2: GGGAAUGGAUCCACAUCUACGAAUUCGUACCAUUGAGAGGCUAUCCGCUCACCGAGAUCGGAAGAGCACACGU
B19: target 1 A1C (mixed)
RNA 1: CACCCGUGCAAAAAUGCAGGGGUCUAAAACUGAGCGGAUAACCUCUCUAUGG
RNA 2: GGGAAUGGAUCCACAUCUACGAAUUCGUACCAUAGAGAGGUUAUCCGCUCCCCGAGAUCGGAAGAGCACACGU
B20: target 1 MT (mixed)
RNA 1: CACCCGUGCAAAAAUGCAGGGGUCUAAAACUGAGCGGAUAACCUCUCUAUGG
RNA 2: GGGAAUGGAUCCACAUCUACGAAUUCGUACCAUAGAGAGGUUAUCCGCUCACCGAGAUCGGAAGAGCACACGU
B21: target 1 C4G,A16G (mixed)
RNA 1: CACCCGUGCAAAAAUGCAGGGGUCUAAAACUGAGCGGAUAACCUCUCUAUGG
RNA 2: GGGAAUGGAUCCACAUCUACGAAUUCGUACCAUAGGGAGGUUAUCCGGUCACCGAGAUCGGAAGAGCACACGU
B22: target 1 C6A,A18C (mixed)
RNA 1: CACCCGUGCAAAAAUGCAGGGGUCUAAAACUGAGCGGAUAACCUCUCUAUGG
RNA 2: GGGAAUGGAUCCACAUCUACGAAUUCGUACCAUCGAGAGGUUAUCAGCUCACCGAGAUCGGAAGAGCACACGU
B23: target 1 insC 3' of 18,insA 3' of 13 (mixed)
RNA 1: CACCCGUGCAAAAAUGCAGGGGUCUAAAACUGAGCGGAUAACCUCUCUAUGG
RNA 2: GGGAAUGGAUCCACAUCUACGAAUUCGUACCAUACGAGAGAGUUAUCCGCUCACCGAGAUCGGAAGAGCACACGU
B24: target 1 U10A,C22G (mixed)
RNA 1: CACCCGUGCAAAAAUGCAGGGGUCUAAAACUGAGCGGAUAACCUCUCUAUGG
RNA 2: GGGAAUGGAUCCACAUCUACGAAUUCGUAGCAUAGAGAGGUAAUCCGCUCACCGAGAUCGGAAGAGCACACGU
B25: target 1 U19C (mixed)
RNA 1: CACCCGUGCAAAAAUGCAGGGGUCUAAAACUGAGCGGAUAACCUCUCUAUGG
RNA 2: GGGAAUGGAUCCACAUCUACGAAUUCGUACCACAGAGAGGUUAUCCGCUCACCGAGAUCGGAAGAGCACACGU
B26: target 1 C7A,U8G (mixed)
RNA 1: CACCCGUGCAAAAAUGCAGGGGUCUAAAACUGAGCGGAUAACCUCUCUAUGG
RNA 2: GGGAAUGGAUCCACAUCUACGAAUUCGUACCAUAGAGAGGUUAGACGCUCACCGAGAUCGGAAGAGCACACGU
B27: target 1 insA 3' of 22,insA 3' of 12 (mixed)
RNA 1: CACCCGUGCAAAAAUGCAGGGGUCUAAAACUGAGCGGAUAACCUCUCUAUGG
RNA 2: GGGAAUGGAUCCACAUCUACGAAUUCGUACACAUAGAGAGGAUUAUCCGCUCACCGAGAUCGGAAGAGCACACGU

In the series the target is T1, EsCas13d, nuclease-dead. Briefly: crRNA (strand 1, pre-loaded); Mg2+; 40 mM Tris-HCl pH 7.5, 150 mM NaCl, 6 mM MgCl2, 1 mM DTT, 0.1% Tween-20, 0.2 mg/ml BSA; 25 C; 10 min per concentration, then washed. Particulars: tags: His6-TwinStrep-SUMO cleaved; N-terminal SNAP kept (SNAP-Surface 488); label: 3' end held by stalled T7 RNA polymerase.
On to B1, for which the affinity, expressed as Kd, was 8.5 ± 0.6 nM.
Next, B2: 65 ± 7 nM; B3: 35 ± 5 nM.
Next, B4: 38 ± 4 nM; B5: 9.8 ± 0.5 nM.
In the case of B6, the Kd (usually the equilibrium constant for the complex coming apart) was 15.2 ± 0.9 nM.
As for B7, the affinity, expressed as Kd, was 9 ± 0.7 nM.
Molecule B8 registered a Kd of 8.6 ± 0.7 nM.
Next, B9: 22.5 ± 3 nM; B10: 26.5 ± 2.9 nM.
In the case of B11, the Kd amounted to 10 ± 0.4 nM.
On to B12, for which the affinity, expressed as Kd, was 40 ± 6 nM.
Consider B13, for which the affinity, expressed as Kd, was 89 ± 11 nM.
The molecule B14 showed a Kd of 15 ± 0.7 nM.
For B15, the dissociation constant (Kd) was found to be 7.77 ± 0.31 nM.
For the molecule B16, binding was put at a Kd of 6.9 ± 0.7 nM.
On to B17, for which the affinity, expressed as Kd, was 25.7 ± 1.5 nM.
For B18, binding was put at a Kd of 45 ± 6 nM.
With B19, the Kd came out at 24 ± 4 nM.
Consider B20, for which binding was put at a Kd of 8.62 ± 0.06 nM.
On to B21, for which binding was characterised by a dissociation constant (Kd) of 16.3 ± 3.2 nM.
With B22, the Kd was 54 ± 4 nM.
B23 came in with a Kd of 24.4 ± 1.9 nM.
Next, B24: 76 ± 25 nM; B25: 21 ± 1.3 nM; B26: 9.8 ± 1.1 nM.
B27: the Kd was 47 ± 8 nM.
